According to patent publication US20220023399A1, “BLOOD COMPONENT POTENTIATION OF LYTIC PROTEIN ANTI-BACTERIAL ACTIVITY AND METHODS AND USES THEREOF” (priority 2017, published 2022):

Columns and labels:
[1] = system: S. aureus strain ATCC 700699; test: Confocal/deconvolution microscopy of cell surface binding; details: 0.25×MIC
S. aureus strain MW2 = test: Fluorescence microscopy of binding after preincubation in different serum types; details: 0.25×MIC
Description: The effect of preincubation of staphylococci with multiple different serum types and MHB on subsequent labeling with a 0.25×MIC amount of CF-301^RHD was also examined by fluorescence microscopy (FIG. 11).
Fluorescence microscopy: Binding of PlySs2 (CF-301) to the Bacterial Cell Surface in Different Serum Environments. Mid-log phase MRSA strain MW2 was suspended at 1×10^7 CFU/mL in either CAMHB or 100% serum from either human (Sigma-Aldrich), rabbit (Gibco), rat (BioreclamationIVT), or mouse (BioreclamationIVT) sources and incubated for 30 minutes at 37° C. An additional mouse serum sample was also tested, containing 40 mg/mL HSA (Albumin Biosciences). After the preincubation, bacteria were washed with 1× phosphate-buffered saline (PBS) and resuspended in 50 μl of PBS and attached to the surface of a poly-L-lysine-coated cover glass. The cells were washed and treated with CF-301^RHOD (2 μg/mL in PBS) for 10 minutes before washing and counterstaining with DAPI. Slides were mounted in 50% glycerol and 0.1% p-phenylenediamine in PBS, pH 8. Fluorescence microscopy was performed using a Nikon Eclipse E400 microscope, equipped with a Nikon 100×/1.25 oil immersion lens, and a Retiga EXi fast 1394 camera (QImaging). QCapture Pro version 5.1.1.14 software (QImaging) was used for image capture and processing.

[2] = system: S. aureus (strain not given); test: MIC analysis of various lysins, chimeric lysins and antibiotics in MHB and human serum; type: cell-based; details: Table 14 (Example 2); for Fold decrease in MIC: human serum vs MHB
Description: To further evaluate the binding domain relevance to the serum component effect, various chimerics were constructed by replacing or swapping out one binding domain for another. Chimeric lysins having the Sal1 CHAP catalytic domain with ClyS binding domain, PlySs2 (CF-301) binding domain, or lysostaphin binding domain were assayed for MIC using MHB versus human serum. the results are depicted below in TABLE 14.

[3] = system: S. aureus (strain not given); test: as above; type: cell-based; details: Table 2; for Fold decrease in MIC: human serum vs MHB
[4] = system: staphylococci (strain not given); test: Checkerboard analysis of PlySs2/CF-301 with AMPs, antimicrobial proteins and albumins in heat-inactivated human serum; type: cell-based, S. aureus; details: in combination with PlySs2/CF-301

B1: CF-301^RHD: rhodamine-labeled PlySs2 (CF-301) (conjugate)
chain: MTTVNEALNNVRAQVGSGVSVGNGECYALASWYERMISPDATVGLGAGVGWVSGAIGDTISAKNIGSSYNWQANGWTVSTSGPFKAGQIVTLGATPGNPYGHVVIVEAVDGDRLTILEQNYGGKRYPVRNYYSAASYRQQVVHYITPPGTVAQSAPNLAGSRSYRETGTMTVTVDALNVRRAPNTSGEIVAVYKRGESFDYDTVIIDVNGYVWVSYIGGSGKRNYVATGATKDGKRFGNAWGTFK
For B1, the “labeling of the staphylococcal cell wall” value ([1]; absence of the HSA pretreatment) was “no labeling was observed”, the “labeling of the staphylococcal cell wall” value ([1]; cells pretreated with HSA at 40 mg/mL) was “extensive labeling” and the “labeling of S. aureus strain MW2” value (S. aureus strain MW2; mouse serum supplemented with HSA) was “restore high-level binding and fluorescence”. For the same molecule, the “labeling of S. aureus strain MW2” value (S. aureus strain MW2; preincubation with human serum or rabbit serum) was “extensive labeling” and the “labeling of S. aureus strain MW2” value (S. aureus strain MW2; preincubation with rat serum, mouse serum or MHB alone) was “poorly labeled cells”.

B2: ClyS: chimeric lysin active against Staphylococci, without SH3-type binding domain; SEQ ID NO:4 (protein)
chain: METLKQAESYIKSKVNTGTDFDGLYGYQCMDLAVDYIYHVTDGKIRMWGNAKDAINNSFGGTATVYKNYPAFRPKYGDVVVWTTGNFATYGHIAIVTNPDPYGDLQYVTVLEQNWNGNGIYKTELATIRTHDYTGITHFIRPNFATESSVKKKDTKKKPKPSNRDGLNKDKIVYDRTNINYNMVLQGKSASKITVGSKAPYNLKWSKGAYFNAKIDGLGATSATRYGDNRTNYRFDVGQAVYAPGTLIYVFEIIDGWCRIYWNNHNEWIWHERLIVKEVF
modifications: Staphlyococcus
For B2, the “Minimal inhibitory concentration, MHB” value [2] was 8 µg/mL, the “Fold decrease in MIC” value [2] was 2 and the “Minimal inhibitory concentration, Human serum” value [2] was 4 µg/mL. For the same molecule, the “Minimal inhibitory concentration, MHB” value [3] was 8 µg/mL, the “Fold decrease in MIC” value [3] was 2 and the “Minimal inhibitory concentration, Human serum” value [3] was 4 µg/mL.

B3: Lactoferrin (Bovine colostrum): lactoferrin, bovine colostrum (Sigma-Aldrich) (protein, UniProt P24627 20-708, looked up)
Lactotransferrin: APRKNVRWCTISQPEWFKCRRWQWRMKKLGAPSITCVRRAFALECIRAIAEKKADAVTLDGGMVFEAGRDPYKLRPVAAEIYGTKESPQTHYYAVAVVKKGSNFQLDQLQGRKSCHTGLGRSAGWIIPMGILRPYLSWTESLEPLQGAVAKFFSASCVPCIDRQAYPNLCQLCKGEGENQCACSSREPYFGYSGAFKCLQDGAGDVAFVKETTVFENLPEKADRDQYELLCLNNSRAPVDAFKECHLAQVPSHAVVARSVDGKEDLIWKLLSKAQEKFGKNKSRSFQLFGSPPGQRDLLFKDSALGFLRIPSKVDSALYLGSRYLTTLKNLRETAEEVKARYTRVVWCAVGPEEQKKCQQWSQQSGQNVTCATASTTDDCIVLVLKGEADALNLDGGYIYTAGKCGLVPVLAENRKSSKHSSLDCVLRPTEGYLAVAVVKKANEGLTWNSLKDKKSCHTAVDRTAGWNIPMGLIVNQTGSCAFDEFFSQSCAPGADPKSRLCALCAGDDQGLDKCVPNSKEKYYGYTGAFRCLAEDVGDVAFVKNDTVWENTNGESTADWAKNLNREDFRLLCLDGTRKPVTEAQSCHLAVAPNHAVVSRSDRAAHVKQVLLHQQALFGKNGKNCPDKFCLFKSETKNLLFNDNTECLAKLGGRPTYEEYLGTEYVTAIANLKKCSTSPLLEACAFLTR
With B3 the ΣFICavg [4] was ≥1.16.

B4: Lactoferrin (Human milk): lactoferrin, human milk (Sigma-Aldrich) (protein, UniProt P02788 20-710, looked up)
Lactotransferrin: GRRRSVQWCAVSQPEATKCFQWQRNMRKVRGPPVSCIKRDSPIQCIQAIAENRADAVTLDGGFIYEAGLAPYKLRPVAAEVYGTERQPRTHYYAVAVVKKGGSFQLNELQGLKSCHTGLRRTAGWNVPIGTLRPFLNWTGPPEPIEAAVARFFSASCVPGADKGQFPNLCRLCAGTGENKCAFSSQEPYFSYSGAFKCLRDGAGDVAFIRESTVFEDLSDEAERDEYELLCPDNTRKPVDKFKDCHLARVPSHAVVARSVNGKEDAIWNLLRQAQEKFGKDKSPKFQLFGSPSGQKDLLFKDSAIGFSRVPPRIDSGLYLGSGYFTAIQNLRKSEEEVAARRARVVWCAVGEQELRKCNQWSGLSEGSVTCSSASTTEDCIALVLKGEADAMSLDGGYVYTAGKCGLVPVLAENYKSQQSSDPDPNCVDRPVEGYLAVAVVRRSDTSLTWNSVKGKKSCHTAVDRTAGWNIPMGLLFNQTGSCKFDEYFSQSCAPGSDPRSNLCALCIGDEQGENKCVPNSNERYYGYTGAFRCLAENAGDVAFVKDVTVLQNTDGNNNEAWAKDLKLADFALLCLDGKRKPVTEARSCHLAMAPNHAVVSRMDKVERLKQVLLHQQAKFGRNGSDCPDKFCLFQSETKNLLFNDNTECLARLHGKTTYEKYLGPQYVAGITNLKKCSTSPLLEACEFLRK
In the case of B4, the ΣFICavg [4] is reported as ≥1.16.

B5: Sal1: anti-staphylococcal lysin, SEQ ID NO:5 (protein)
chain: MAKTQAEINKRLDAYAKGTVDSPYRIKKATSYDPSFGVMEAGAIDADGYYHAQCQDLITDYVLWLTDNKVRTWGNAKDQIKQSYGTGFKIHENKPSTVPKKGWIAVFTSGSYQQWGHIGIVYDGGNTSTFTILEQNWNGYANKKPTKRVDNYYGLTHFIEIPVKAGTTVKKETAKKSASKTPAPKKKATLKVSKNHINYTMDKRGKKPEGMVIHNDAGRSSGQQYENSLANAGYARYANGIAHYYGSEGYVWEAIDAKNQIAWHTGDGTGANSGNFRFAGIEVCQSMSASDAQFLKNEQAVFQFTAEKFKEWGLTPNRKTVRLHMEFVPTACPHRSMVLHTGFNPVTQGRPSQAIMNKLKDYFIKQIKNYMDKGTSSSTVVKDGKTSSASTPATRPVTGSWKKNQYGTWYKPENATFVNGNQPIVTRIGSPFLNAPVGGNLPAGATIVYDEVCIQAGHIWIGYNAYNGNRVYCPVRTCQGVPPNHIPGVAWGVFK
modifications: Staphylococcus
B5 was tested, and the “Minimal inhibitory concentration, MHB” value [2] was 2 µg/mL, the “Fold decrease in MIC” value [2] was 32 and the “Minimal inhibitory concentration, Human serum” value [2] was 0.06 µg/mL. For the same molecule, the “Minimal inhibitory concentration, MHB” value [3] was 2 µg/mL, the “Fold decrease in MIC” value [3] was 32 and the “Minimal inhibitory concentration, Human serum” value [3] was 0.06 µg/mL.

B6: Serum albumin (Rat, from serum): rat serum albumin (protein, UniProt P02770 25-608, looked up)
Albumin: EAHKSEIAHRFKDLGEQHFKGLVLIAFSQYLQKCPYEEHIKLVQEVTDFAKTCVADENAENCDKSIHTLFGDKLCAIPKLRDNYGELADCCAKQEPERNECFLQHKDDNPNLPPFQRPEAEAMCTSFQENPTSFLGHYLHEVARRHPYFYAPELLYYAEKYNEVLTQCCTESDKAACLTPKLDAVKEKALVAAVRQRMKCSSMQRFGERAFKAWAVARMSQRFPNAEFAEITKLATDVTKINKECCHGDLLECADDRAELAKYMCENQATISSKLQACCDKPVLQKSQCLAEIEHDNIPADLPSIAADFVEDKEVCKNYAEAKDVFLGTFLYEYSRRHPDYSVSLLLRLAKKYEATLEKCCAEGDPPACYGTVLAEFQPLVEEPKNLVKTNCELYEKLGEYGFQNAVLVRYTQKAPQVSTPTLVEAARNLGRVGTKCCTLPEAQRLPCVEDYLSAILNRLCVLHEKTPVSEKVTKCCSGSLVERRPCFSALTVDETYVPKEFKAETFTFHSDICTLPDKEKQIKKQTALAELVKHKPKATEDQLKTVMGDFAQFVDKCCKAADKDNCFATEGPNLVARSKEALA
In the case of B6, the ΣFICavg [4] is reported as ≥1.16.

B7: Lysozyme (Human, recombinant): human lysozyme, recombinant expressed in rice (protein, UniProt P61626 19-148, looked up)
Lysozyme C: KVFERCELARTLKRLGMDGYRGISLANWMCLAKWESGYNTRATNYNAGDRSTDYGIFQINSRYWCNDGKTPGAVNACHLSCSALLQDNIADAVACAKRVVRDPQGIRAWVAWRNRCQNRDVRQYVQGCGV
For B7, the ΣFICavg [4] was ≤0.05.

B8: Lysozyme (Human neutrophil derived): lysozyme, human neutrophil-derived (protein, UniProt P61626 19-148, looked up)
Lysozyme C: B7 Lysozyme C
In the case of B8, the ΣFICavg [4] is reported as ≤0.056.
